{"source": "patent EP4663654A1", "about": "(Hangzhou Sciwind Biosciences Co., Ltd., dated 2025)", "binders": {"B1": {"name": "polypeptide derivative M18 (peptide)", "peptide": "{C20 diacid-βAsp-AEEA-AEEA}-ASQLSTAATQRLADFLRHFTDRDRDILPPTNVGSNTP-NH2", "SMILES": "CC[C@H](C)[C@H](NC(=O)[C@H](CC(=O)O)NC(=O)[C@H](CCCNC(=N)N)NC(=O)[C@H](CC(=O)O)NC(=O)[C@H](CCCNC(=N)N)NC(=O)[C@H](CC(=O)O)NC(=O)[C@@H](NC(=O)[C@H](Cc1ccccc1)NC(=O)[C@H](Cc1c[nH]cn1)NC(=O)[C@H](CCCNC(=N)N)NC(=O)[C@H](CC(C)C)NC(=O)[C@H](Cc1ccccc1)NC(=O)[C@H](CC(=O)O)NC(=O)[C@H](C)NC(=O)[C@H](CC(C)C)NC(=O)[C@H](CCCNC(=N)N)NC(=O)[C@H](CCC(N)=O)NC(=O)[C@@H](NC(=O)[C@H](C)NC(=O)[C@H](C)NC(=O)[C@@H](NC(=O)[C@H](CO)NC(=O)[C@H](CC(C)C)NC(=O)[C@H](CCC(N)=O)NC(=O)[C@H](CO)NC(=O)[C@H](C)NC(=O)COCCOCCNC(=O)COCCOCCNC(=O)C[C@H](NC(=O)CCCCCCCCCCCCCCCCCCC(=O)O)C(=O)O)[C@@H](C)O)[C@@H](C)O)[C@@H](C)O)C(=O)N[C@@H](CC(C)C)C(=O)N1CCC[C@H]1C(=O)N1CCC[C@H]1C(=O)N[C@H](C(=O)N[C@@H](CC(N)=O)C(=O)N[C@H](C(=O)NCC(=O)N[C@@H](CO)C(=O)N[C@@H](CC(N)=O)C(=O)N[C@H](C(=O)N1CCC[C@H]1C(N)=O)[C@@H](C)O)C(C)C)[C@@H](C)O"}, "B2": {"name": "polypeptide derivative M17 (peptide)", "peptide": "{C20 diacid}-E[AEEA][AEEA]ASQLSTAATQRLADFLRHFTDRDRDILPPTNVGSNTP-NH2", "SMILES": "CC[C@H](C)[C@H](NC(=O)[C@H](CC(=O)O)NC(=O)[C@H](CCCNC(=N)N)NC(=O)[C@H](CC(=O)O)NC(=O)[C@H](CCCNC(=N)N)NC(=O)[C@H](CC(=O)O)NC(=O)[C@@H](NC(=O)[C@H](Cc1ccccc1)NC(=O)[C@H](Cc1c[nH]cn1)NC(=O)[C@H](CCCNC(=N)N)NC(=O)[C@H](CC(C)C)NC(=O)[C@H](Cc1ccccc1)NC(=O)[C@H](CC(=O)O)NC(=O)[C@H](C)NC(=O)[C@H](CC(C)C)NC(=O)[C@H](CCCNC(=N)N)NC(=O)[C@H](CCC(N)=O)NC(=O)[C@@H](NC(=O)[C@H](C)NC(=O)[C@H](C)NC(=O)[C@@H](NC(=O)[C@H](CO)NC(=O)[C@H](CC(C)C)NC(=O)[C@H](CCC(N)=O)NC(=O)[C@H](CO)NC(=O)[C@H](C)NC(=O)COCCOCCNC(=O)COCCOCCNC(=O)[C@H](CCC(=O)O)NC(=O)CCCCCCCCCCCCCCCCCCC(=O)O)[C@@H](C)O)[C@@H](C)O)[C@@H](C)O)C(=O)N[C@@H](CC(C)C)C(=O)N1CCC[C@H]1C(=O)N1CCC[C@H]1C(=O)N[C@H](C(=O)N[C@@H](CC(N)=O)C(=O)N[C@H](C(=O)NCC(=O)N[C@@H](CO)C(=O)N[C@@H](CC(N)=O)C(=O)N[C@H](C(=O)N1CCC[C@H]1C(N)=O)[C@@H](C)O)C(C)C)[C@@H](C)O"}, "B3": {"name": "polypeptide derivative M2 (peptide)", "peptide": "{C20 diacid-γGlu}-ASQLSTAVLGRLADFLRHSSNNLKPILPPTNVGSNT[Hyp]-NH2", "SMILES": "CC[C@H](C)[C@H](NC(=O)[C@@H]1CCCN1C(=O)[C@H](CCCCN)NC(=O)[C@H](CC(C)C)NC(=O)[C@H](CC(N)=O)NC(=O)[C@H](CC(N)=O)NC(=O)[C@H](CO)NC(=O)[C@H](CO)NC(=O)[C@H](Cc1c[nH]cn1)NC(=O)[C@H](CCCNC(=N)N)NC(=O)[C@H](CC(C)C)NC(=O)[C@H](Cc1ccccc1)NC(=O)[C@H](CC(=O)O)NC(=O)[C@H](C)NC(=O)[C@H](CC(C)C)NC(=O)[C@H](CCCNC(=N)N)NC(=O)CNC(=O)[C@H](CC(C)C)NC(=O)[C@@H](NC(=O)[C@H](C)NC(=O)[C@@H](NC(=O)[C@H](CO)NC(=O)[C@H](CC(C)C)NC(=O)[C@H](CCC(N)=O)NC(=O)[C@H](CO)NC(=O)[C@H](C)NC(=O)CC[C@H](NC(=O)CCCCCCCCCCCCCCCCCCC(=O)O)C(=O)O)[C@@H](C)O)C(C)C)C(=O)N[C@@H](CC(C)C)C(=O)N1CCC[C@H]1C(=O)N1CCC[C@H]1C(=O)N[C@H](C(=O)N[C@@H](CC(N)=O)C(=O)N[C@H](C(=O)NCC(=O)N[C@@H](CO)C(=O)N[C@@H](CC(N)=O)C(=O)N[C@H](C(=O)N1C[C@H](O)C[C@H]1C(N)=O)[C@@H](C)O)C(C)C)[C@@H](C)O"}, "B4": {"name": "polypeptide derivative M19 (peptide)", "peptide": "{C20 diacid}-D[AEEA][AEEA]ASQLSTAATQRLADFLRHFTDRDRDILPPTNVGSNTP-NH2", "SMILES": "CC[C@H](C)[C@H](NC(=O)[C@H](CC(=O)O)NC(=O)[C@H](CCCNC(=N)N)NC(=O)[C@H](CC(=O)O)NC(=O)[C@H](CCCNC(=N)N)NC(=O)[C@H](CC(=O)O)NC(=O)[C@@H](NC(=O)[C@H](Cc1ccccc1)NC(=O)[C@H](Cc1c[nH]cn1)NC(=O)[C@H](CCCNC(=N)N)NC(=O)[C@H](CC(C)C)NC(=O)[C@H](Cc1ccccc1)NC(=O)[C@H](CC(=O)O)NC(=O)[C@H](C)NC(=O)[C@H](CC(C)C)NC(=O)[C@H](CCCNC(=N)N)NC(=O)[C@H](CCC(N)=O)NC(=O)[C@@H](NC(=O)[C@H](C)NC(=O)[C@H](C)NC(=O)[C@@H](NC(=O)[C@H](CO)NC(=O)[C@H](CC(C)C)NC(=O)[C@H](CCC(N)=O)NC(=O)[C@H](CO)NC(=O)[C@H](C)NC(=O)COCCOCCNC(=O)COCCOCCNC(=O)[C@H](CC(=O)O)NC(=O)CCCCCCCCCCCCCCCCCCC(=O)O)[C@@H](C)O)[C@@H](C)O)[C@@H](C)O)C(=O)N[C@@H](CC(C)C)C(=O)N1CCC[C@H]1C(=O)N1CCC[C@H]1C(=O)N[C@H](C(=O)N[C@@H](CC(N)=O)C(=O)N[C@H](C(=O)NCC(=O)N[C@@H](CO)C(=O)N[C@@H](CC(N)=O)C(=O)N[C@H](C(=O)N1CCC[C@H]1C(N)=O)[C@@H](C)O)C(C)C)[C@@H](C)O"}, "B5": {"name": "polypeptide derivative M16 (peptide)", "peptide": "{C20 diacid-γGlu-AEEA-AEEA}-ASQLSTAATQRLADFLRHFTDRDRDILPPTNVGSNTP-NH2", "SMILES": "CC[C@H](C)[C@H](NC(=O)[C@H](CC(=O)O)NC(=O)[C@H](CCCNC(=N)N)NC(=O)[C@H](CC(=O)O)NC(=O)[C@H](CCCNC(=N)N)NC(=O)[C@H](CC(=O)O)NC(=O)[C@@H](NC(=O)[C@H](Cc1ccccc1)NC(=O)[C@H](Cc1c[nH]cn1)NC(=O)[C@H](CCCNC(=N)N)NC(=O)[C@H](CC(C)C)NC(=O)[C@H](Cc1ccccc1)NC(=O)[C@H](CC(=O)O)NC(=O)[C@H](C)NC(=O)[C@H](CC(C)C)NC(=O)[C@H](CCCNC(=N)N)NC(=O)[C@H](CCC(N)=O)NC(=O)[C@@H](NC(=O)[C@H](C)NC(=O)[C@H](C)NC(=O)[C@@H](NC(=O)[C@H](CO)NC(=O)[C@H](CC(C)C)NC(=O)[C@H](CCC(N)=O)NC(=O)[C@H](CO)NC(=O)[C@H](C)NC(=O)COCCOCCNC(=O)COCCOCCNC(=O)CC[C@H](NC(=O)CCCCCCCCCCCCCCCCCCC(=O)O)C(=O)O)[C@@H](C)O)[C@@H](C)O)[C@@H](C)O)C(=O)N[C@@H](CC(C)C)C(=O)N1CCC[C@H]1C(=O)N1CCC[C@H]1C(=O)N[C@H](C(=O)N[C@@H](CC(N)=O)C(=O)N[C@H](C(=O)NCC(=O)N[C@@H](CO)C(=O)N[C@@H](CC(N)=O)C(=O)N[C@H](C(=O)N1CCC[C@H]1C(N)=O)[C@@H](C)O)C(C)C)[C@@H](C)O"}}, "note": "Starred links: 1 amine or outer side, 2 acyl side, 3 side chain; linkers in the order of their positions; H or OH if unused. Non-standard residues stand in square brackets, D forms with d. Primed or numbered codes have the meaning given here. *: point of attachment. C20 diacid = O=C(O)CCCCCCCCCCCCCCCCCCC(=O)*; γGlu = O=C(O)[C@H](CCC(=O)[*:2])N[*:1]; βAsp = O=C(O)[C@H](CC(=O)[*:2])N[*:1]; Hyp = O=C(O)[C@@H]1C[C@@H](O)CN1; Inp′ = not defined here; Trx′ = not defined here; AEEA = NCCOCCOCC(=O)O", "data": [{"target": "T1, human amylin receptor (AMY3) on CHO-K1/Ga15/AMY3 amylin receptor/CRE-luc cells (human, UniProt P30988 25-474; O60896 24-148)", "T1 sequence (looked up) 1": "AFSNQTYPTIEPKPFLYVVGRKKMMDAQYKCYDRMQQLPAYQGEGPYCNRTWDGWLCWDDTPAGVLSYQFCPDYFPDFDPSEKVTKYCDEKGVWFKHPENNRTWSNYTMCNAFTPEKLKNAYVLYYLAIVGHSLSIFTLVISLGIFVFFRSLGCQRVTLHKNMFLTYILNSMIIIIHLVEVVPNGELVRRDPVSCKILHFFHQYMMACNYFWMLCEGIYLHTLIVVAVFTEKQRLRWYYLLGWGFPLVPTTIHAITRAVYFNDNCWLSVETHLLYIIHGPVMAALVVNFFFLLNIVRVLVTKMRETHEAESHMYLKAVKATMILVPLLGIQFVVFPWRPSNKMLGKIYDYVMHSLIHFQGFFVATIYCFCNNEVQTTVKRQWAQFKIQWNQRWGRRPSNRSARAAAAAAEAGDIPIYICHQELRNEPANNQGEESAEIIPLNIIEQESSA", "T1 sequence (looked up) 2": "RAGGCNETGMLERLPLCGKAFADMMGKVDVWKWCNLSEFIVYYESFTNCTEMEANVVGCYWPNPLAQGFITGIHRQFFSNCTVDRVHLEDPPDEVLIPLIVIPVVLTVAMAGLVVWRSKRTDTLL", "assay": "cell-based or functional assay", "units": {"EC50/nM, CRE-luciferase reporter in amylin receptor/CRE-luc CHO cells": "nM", "Relative activity (the EC50 ratio of Cagrilintide to the compound)": "%"}, "values": [{"binder": "B1", "EC50/nM, CRE-luciferase reporter in amylin receptor/CRE-luc CHO cells": 0.026, "Relative activity (the EC50 ratio of Cagrilintide to the compound)": 110}, {"binder": "{C20 diacid-Inp′-AEEA-AEEA}-ASQLSTAATQRLADFLRHFTDRDRDILPPTNVGSNTP-NH2", "note": "[polypeptide derivative M21]", "EC50/nM, CRE-luciferase reporter in amylin receptor/CRE-luc CHO cells": 0.023, "Relative activity (the EC50 ratio of Cagrilintide to the compound)": 126}, {"binder": "B2", "EC50/nM, CRE-luciferase reporter in amylin receptor/CRE-luc CHO cells": 0.026, "Relative activity (the EC50 ratio of Cagrilintide to the compound)": 94}, {"binder": "B3", "EC50/nM, CRE-luciferase reporter in amylin receptor/CRE-luc CHO cells": 0.038, "Relative activity (the EC50 ratio of Cagrilintide to the compound)": 68}, {"binder": "{C20 diacid-Trx′-AEEA-AEEA}-ASQLSTAATQRLADFLRHFTDRDRDILPPTNVGSNTP-NH2 (reading uncertain)", "note": "[polypeptide derivative M20]", "EC50/nM, CRE-luciferase reporter in amylin receptor/CRE-luc CHO cells": 0.017, "Relative activity (the EC50 ratio of Cagrilintide to the compound)": 171}, {"binder": "B4", "EC50/nM, CRE-luciferase reporter in amylin receptor/CRE-luc CHO cells": 0.036, "Relative activity (the EC50 ratio of Cagrilintide to the compound)": 80}, {"binder": "B5", "EC50/nM, CRE-luciferase reporter in amylin receptor/CRE-luc CHO cells": 0.042, "Relative activity (the EC50 ratio of Cagrilintide to the compound)": 58}]}]}
